Experimental data taken from patent publication US20150203579A1 (Regeneron, published 2015).

T1: recombinant cynomolgus monkey PD-1 expressed with a C-terminal myc-myc-hexahistidine tag (cynomolgus monkey (Macaca fascicularis))
T1 construct: monomeric; also called MfPD-1-MMH
T1 chain: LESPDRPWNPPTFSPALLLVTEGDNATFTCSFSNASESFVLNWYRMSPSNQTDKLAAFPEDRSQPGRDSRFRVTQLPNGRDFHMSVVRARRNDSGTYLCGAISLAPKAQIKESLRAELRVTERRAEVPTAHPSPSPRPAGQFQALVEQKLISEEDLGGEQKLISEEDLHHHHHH


What was measured:
[1] = target: T2, human PD-1 dimer (human PD-1-mFc or human PD-1-hFc) (human, UniProt Q15116 25-170); assay: SPR, mAb captured, 37C;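 also: Real-time Biacore biosensor, PD-1 dimer flowed over anti-PD-1 antibody surface, rate constants fitted to a 1:1 model, KD derived as kd/ka and t½ as ln2/(60·kd)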
T2 construct: also called hPD-1-mFc; hPD1-hFc

[2] = target: T2, human PD-1 dimer (human PD-1-mFc or …); assay: SPR, mAb captured, 25C
[3] = target: T1, recombinant cynomolgus monkey PD-1 …; assay: SPR, mAb captured, 25C
[4] = target: T3, recombinant human PD-1 expressed with a C-terminal myc-myc-hexahistidine tag (human); assay: SPR, mAb captured, 37C;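 also: rate constants from fitting sensorgrams to a 1:1 binding model, KD derived as kd divided by ka and half-life as ln2/(60·kd)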
T3 construct: monomeric; also called hPD-1-MMH; human PD-1-MMH

[5] = target: T1, recombinant cynomolgus monkey PD-1 …; assay: SPR, mAb captured, 37C;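 also: rate constants from fitting sensorgrams to a 1:1 binding model, with Kd computed as koff/kon and half-life as ln2/(60·koff), PD-1 flowing over anti-PD-1 antibody surfaces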

T2 sequence (Q15116 25-170 C93S): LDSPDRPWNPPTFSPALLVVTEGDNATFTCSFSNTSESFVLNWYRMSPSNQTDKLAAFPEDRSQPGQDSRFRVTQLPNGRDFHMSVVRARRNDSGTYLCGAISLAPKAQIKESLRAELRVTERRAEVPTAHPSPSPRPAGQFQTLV

Row | Kd [1] | koff [1] | kon [1] | t½ [1] | Kd [2] | koff [2] | kon [2] | t½ [2] | Kd [3] | koff [3] | kon [3] | t½ [3] | Kd [4] | koff [4] | kon [4] | t½ [4] | Kd [5] | koff [5] | kon [5] | t½ [5] | Binder
1 | 0.371 nM | 6.13e-05 s⁻¹ | 165000 M⁻¹ s⁻¹ | 188 min | 0.227 nM | 3.14e-05 s⁻¹ | 138000 M⁻¹ s⁻¹ | 368 min | 20.1 nM | 0.000889 s⁻¹ | 44400 M⁻¹ s⁻¹ | 13 min | 67.8 nM | 0.00458 s⁻¹ | 67500 M⁻¹ s⁻¹ | 2.5 min | 60.2 nM | 0.00389 s⁻¹ | 64700 M⁻¹ s⁻¹ | 3 min | H2aM7795N (antibody, mouse IgG2a, V domains shown, Human variable regions, mouse IgG2a Fc; also called H2M7795N) VH: EVQVVESGGGLVEPGRSLRLSCKASGFTFDDYAMHWVRQTPGKALEWVSGINWSGNNIGYADSVKGRFTISKDDAKNSLYLQMNSLRPEDTALYYCTKDISITGTLDAFDVWGQGTMVTVSS VL: DIQMTQSPISVSASVGDRVTITCRASQGISNWLAWYQQKPGIAPKLLIYSASSLQSGVPSRFRGSGSGTDFTLTIGSLQPEDFATYYCQQAHSFPLTFGGGTKVEIK
2 | 0.163 nM | 2.13e-05 s⁻¹ | 131000 M⁻¹ s⁻¹ | 542 min | 0.315 nM | 2.82e-05 s⁻¹ | 89400 M⁻¹ s⁻¹ | 410 min | 76.6 nM | 0.000662 s⁻¹ | 8630 M⁻¹ s⁻¹ | 17 min | 51.9 nM | 0.00149 s⁻¹ | 28800 M⁻¹ s⁻¹ | 7.7 min | 174 nM | 0.00328 s⁻¹ | 18800 M⁻¹ s⁻¹ | 3.5 min | H2aM7788N (antibody, mouse IgG2a, V domains shown, Human variable regions, mouse IgG2a Fc; also called H2M7788N) VH: EVQLVESGGGLVQPGGSLRLSCGASGFTFRNYDMHWVRQITGKGLEWVSAIGSAGDTYYPDSVKGRFTISRENAKNSLYLQMNSLRVGDTAVYYCTRDIHCSSTRCYGMDVWGQGTTVTVSS VL: not shown
3 | 0.411 nM | 0.000181 s⁻¹ | 441000 M⁻¹ s⁻¹ | 64 min | 0.36 nM | 8.55e-05 s⁻¹ | 238000 M⁻¹ s⁻¹ | 135 min | 224 nM | 0.013 s⁻¹ | 57800 M⁻¹ s⁻¹ | 0.9 min | 536 nM | 0.0425 s⁻¹ | 79400 M⁻¹ s⁻¹ | 0.3 min | 530 nM | 0.0467 s⁻¹ | 88000 M⁻¹ s⁻¹ | 0.2 min | H1M7799N (antibody, mouse IgG1, V domains shown, Human variable regions, mouse IgG1 Fc) VH: EVQLVESGGGLVQPGGSLRLSCAASGFTVSNNYMSWVRQAPGKGLEWVSVIYSGGFTYYTDSVKGRFTISRHNSKNTLYLQMNSLRAEDTAVYYCARYYYDTSDYWTFFDYWGQGTLVTVSS VL: EIVMTQSPATLSVSPGERATLSCRASQSVSSNLAWYQQKPGQAPRLLIYGASTRATGIPARFSGSGSGTEFTLTISSLQSGDFAVYYCQQYNNWPLTFGGGTKVEIN
4 | 0.45 nM | 0.000181 s⁻¹ | 400000 M⁻¹ s⁻¹ | 64 min | 0.509 nM | 7.72e-05 s⁻¹ | 152000 M⁻¹ s⁻¹ | 150 min | 176 nM | 0.0104 s⁻¹ | 58900 M⁻¹ s⁻¹ | 1.1 min | 510 nM | 0.0399 s⁻¹ | 78300 M⁻¹ s⁻¹ | 0.3 min | 527 nM | 0.0443 s⁻¹ | 84000 M⁻¹ s⁻¹ | 0.3 min | H1M7800N (antibody, mouse IgG1, V domains shown, Human variable regions, mouse IgG1 Fc) VH: EVQLVESGGGLVQPGGSLRLSCAASGFTVSNNYMSWVRQAPGKGLEWVSVIYSGGFTYYTDSVKGRFTISRHNSKNTLYLQMNSLRAEDTAVYYCARYYYDTSDYWTFFDYWGQGTLVTVSS VL: EIVMTQSPATLSVSPGERATLSCRASQSVSSNLAWYQQKPGQAPRLLIYGASTRATGIPARFSGSGSGTEFTLTISSLQSGDFAVYYCQQYNNWPLTFGGGTKVEIN
5 | 0.028 nM | 1.4e-05 s⁻¹ | 490000 M⁻¹ s⁻¹ | 825 min | 0.0655 nM | 2.29e-05 s⁻¹ | 350000 M⁻¹ s⁻¹ | 505 min | 4.5 nM | 0.000393 s⁻¹ | 87200 M⁻¹ s⁻¹ | 29 min | 3.79 nM | 0.000656 s⁻¹ | 173000 M⁻¹ s⁻¹ | 18 min | 7 nM | 0.000993 s⁻¹ | 142000 M⁻¹ s⁻¹ | 12 min | H2aM7798N (antibody, mouse IgG2a, V domains shown, Human variable regions, mouse IgG2a Fc; also called H2M7798N) VH: EVQLLESGGVLVQPGGSLRLSCAASGFTFSNFGMTWVRQAPGKGLEWVSGISGGGRDTYFADSVKGRFTISRDNSKNTLYLQMNSLKGEDTAVYYCVKWGNIYFDYWGQGTLVTVSS VL: DIQMTQSPSSLSASVGDSITITCRASLSINTFLNWYQQKPGKAPNLLIYAASSLHGGVPSRFSGSGSGTDFTLTIRTLQPEDFATYYCQQSSNTPFTFGPGTVVDFR
6 | 3.59 nM | 0.000179 s⁻¹ | 49800 M⁻¹ s⁻¹ | 65 min | 2.49 nM | 0.000101 s⁻¹ | 40500 M⁻¹ s⁻¹ | 114 min | 34.4 nM | 0.000553 s⁻¹ | 16100 M⁻¹ s⁻¹ | 21 min | 53.5 nM | 0.00224 s⁻¹ | 41800 M⁻¹ s⁻¹ | 5.2 min | 50.5 nM | 0.00191 s⁻¹ | 37900 M⁻¹ s⁻¹ | 6 min | H2aM7791N (antibody, mouse IgG2a, V domains shown, Human variable regions, mouse IgG2a Fc; also called H2M7791N) VH: QMQLQQWGAGLLKPSETLSLTCVVYGGSLNGYYWSWIRQSPGKGLEWIGEIDHSGSTNYNPSLKNRVTMSVDTSKIQFSLKLTSVTVADTAVYYCAREGLLPFDYWGQGTLVTVSS VL: EIVLTQSPGTLSLSPGERVTLSCRASQSVYSNYLAWYQQNPGQAPRLLIYAASNRATGIPDRFSGSGSGTDFTLTISRLEPEDFAVYYCHQYATSPWTFGQGTKVEIK
7 | ≤ 0.0917 nM | ≤ 1e-05 s⁻¹ | 109000 M⁻¹ s⁻¹ | ≥ 1160 min | 1.1 nM | 4.31e-05 s⁻¹ | 39100 M⁻¹ s⁻¹ | 268 min | 7.89 nM | 0.000123 s⁻¹ | 15500 M⁻¹ s⁻¹ | 94 min | 6.52 nM | 0.000295 s⁻¹ | 45300 M⁻¹ s⁻¹ | 39 min | 8.5 nM | 0.000408 s⁻¹ | 47900 M⁻¹ s⁻¹ | 28 min | H1M7789N (antibody, mouse IgG1, V domains shown, Human variable regions, mouse IgG1 Fc) VH: EVQLLESGGGLVQPGGSLRLSCSASGFTFSSYTMNWVRQAPGKGLEWVSGISDTGGNTYYTDSVKGRFTVSRDNSKNTLSLQMNSLRAEDTAVYYCAKDQGGSYPYYFHYWGQGSLVTVSS VL: DIQMTQSPSSLSASVGDRVTITCRASQSISSYLIWYQQKPGTAPKFLIYAASSLQSGVPSRFSGCGSGTDFTLTISSLQPEDFATYYCQQSYSTPPITFGQGTRLEIK
8 | 0.452 nM | 0.000211 s⁻¹ | 468000 M⁻¹ s⁻¹ | 55 min | 0.593 nM | 0.000106 s⁻¹ | 179000 M⁻¹ s⁻¹ | 109 min | 166 nM | 0.00599 s⁻¹ | 36000 M⁻¹ s⁻¹ | 1.9 min | 66.1 nM | 0.00792 s⁻¹ | 120000 M⁻¹ s⁻¹ | 1.5 min | 302 nM | 0.0201 s⁻¹ | 66600 M⁻¹ s⁻¹ | 0.6 min | H2aM7794N (antibody, V domains shown, Human variable regions, mouse IgG2a Fc; also called H2M7794N) VH: QLQLQESGPDLVKPSDTLSLTCTVSDDSISSTTYYWAWIRQPPGKGLEWIGSMSYNGNNYYNPSLKSRVAISAGTSQKQFSLKLTSVTAADTAVYHCARHLGYNGNWYPFDFWGQGILVTVSS VL: not shown
